# Experimental data as given in publication PMC3758141, “Structural analysis of DNA–protein complexes regulating the restriction–modification system Esp1396I” (Acta Crystallographica Section F: Structural Biology and …, 2013).
# T1: C.Esp1396I controller protein (plasmid pEsp1396I (type II RM system …, UniProt Q8GGH0 1-79))
# T1 sequence: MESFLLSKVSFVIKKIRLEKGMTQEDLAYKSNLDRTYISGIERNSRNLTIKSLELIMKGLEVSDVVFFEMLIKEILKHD
# B1: 25OL (dsDNA)
# DNA 1: ATGTGACTTATAGTCGTGTGATTA
# DNA 2: TAATCACACGACTATAAGTCACAT
# B2: controller protein C.Esp1396I (natural protein)
# chain: T1 sequence
# notes: controller protein (C-protein) of the plasmid-borne type II restriction-modification system Esp1396I; 'native C.Esp1396I'; Homodimer; The His tag was removed with thrombin before crystallisation; In both crystals the dimer stands together with a DNA duplex (19 bp OR or 25 bp OL plus half of OR); also called C-protein; not shown: His6, N-terminal, cleaved
# How the values were obtained:
# [1] = target: T1, C.Esp1396I controller protein; experiment: X-ray crystallography; dimer bound at OL via HTH, OR half unbound; 10 mM spermidine, protein:DNA 2:1; Crystallization by vapour diffusion: 19OR 0.1 M PCB buffer pH 5.0, 25% PEG 3350, 10 mM spermidine (microseeded); 25OL 0.1 M PCB pH 4.0, 20% PEG 1500, 10 mM spermidine; temperature not stated; conditions: protein: recombinant; tags: N-terminal His6 removed with thrombin; chain copies: 2; (called 25 bp, but printed strand has 24 nt)
# [2] = target: the molecule itself; experiment: crystal structure; co-crystal of C.Esp1396I with the 19 bp OR DNA duplex (19OR), protein:DNA 1:1, 0.1 M PCB buffer pH 5.0, 25% PEG 3350, 10 mM spermidine, microseeding; 3.0 Å, space group C2
Binder,binding result [1],binding result [2]
B1,binds,
B2,,binds
